PMC6073470 (International Journal of Molecular Sciences, 2018)
Where a chain is given by its changes, count along the chain named. Names may count otherwise. Where two headings read alike, the source gives them in different places.

T1: human small heat shock protein HspB6, wild type (human), O14558
T1 chain: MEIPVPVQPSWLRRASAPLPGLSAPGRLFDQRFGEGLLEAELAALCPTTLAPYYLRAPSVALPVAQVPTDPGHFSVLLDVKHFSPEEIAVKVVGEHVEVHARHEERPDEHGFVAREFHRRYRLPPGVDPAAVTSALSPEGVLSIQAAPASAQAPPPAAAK

T2: human small heat shock protein HspB8, wild type (human), Q9UJY1
T2 chain: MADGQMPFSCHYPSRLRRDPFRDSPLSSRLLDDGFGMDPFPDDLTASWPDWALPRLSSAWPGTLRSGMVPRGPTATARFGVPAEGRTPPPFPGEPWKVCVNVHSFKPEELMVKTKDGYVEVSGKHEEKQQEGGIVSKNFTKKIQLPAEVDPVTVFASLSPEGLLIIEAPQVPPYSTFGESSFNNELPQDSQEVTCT

B1: R21A mutant of human HspB4 (natural protein, UniProt P02489 1-173, looked up)
chain: MDVTIQHPWFKRTLGPFYPSALFDQFFGEGLFEYDLLPFLSSTISPYYRQSLFRTVLDSGISEVRSDRDKFVIFLDVKHFSPEDLTVKVQDDFVEIHGKHNERQDDHGYISREFHRRYRLPSNVDQSALSCSLSADGMLTFCGPKIQTGLDATHAERAIPVSREEKPTSAPSS
B2: human small heat shock protein HspB6, wild type, O14558 1-160 (natural protein)
chain: T1 chain
B3: R27A mutant of human HspB6 (natural protein, UniProt O14558 1-160, looked up)
chain: T1 chain with R27A
notes: HspB6, human; UniProt O14558; Arg27 of the RLFDQxFG motif replaced by Ala; Expressed from pET23b; also called R27A HspB6; R27A mutant of HspB6
B4: human small heat shock protein HspB8, wild type, Q9UJY1 1-196 (natural protein)
chain: T2 chain
B5: R29A mutant of human HspB8 (natural protein, UniProt Q9UJY1 1-196, looked up)
chain: T2 chain with R29A
notes: HspB8, human; UniProt Q9UJY1; Arg29 of the RLFDQxFG motif replaced by Ala; Expressed from pET23b; also called R29A HspB8; source: E. coli BL21(DE3)pLysS, purified (ammonium sulfate fractionation, HiTrap Phenyl Sepharose, Superdex-200 SEC)
B6: human small heat shock protein HspB5 (alphaB-crystallin), wild type (natural protein, UniProt P02511 1-175, looked up)
chain: MDIAIHHPWIRRPFFPFHSPSRLFDQFFGEHLLESDLFPTSTSLSPFYLRPPSFLRAPSWFDTGLSEMRLEKDRFSVNLDVKHFSPEELKVKVLGDVIEVHGKHEERQDEHGFISREFHRKYRIPADVDPLTITSSLSSDGVLTVNGPRKQVSGPERTIPITREEKPAVTAAPKK
notes: HspB5 (alphaB-crystallin), human; UniProt P02511; Expressed from pET23b; The printed monomeric mass (20.2 kDa) fits the whole protein; also called αB-crystallin; wild type HspB5; source: E. coli BL21(DE3)pLysS, purified (ammonium sulfate fractionation, HiTrap Q HP, Superdex-200 SEC)
B7: R22A mutant of human HspB5 (natural protein, UniProt P02511 1-175, looked up)
chain: B6 chain with R22A
notes: HspB5 (alphaB-crystallin), human; UniProt P02511; Arg22 of the RLFDQxFG motif replaced by Ala; Expressed from pET23b; also called R22A HspB5; source: E. coli BL21(DE3)pLysS, purified (ammonium sulfate fractionation, HiTrap Q HP, Superdex-200 SEC)

How the values were obtained:
[1] = target: the molecule itself; assay: SEC; Superdex 200 HR 10/30; 20 mM Tris/acetate pH 7.6, 150 mM NaCl, 0.1 mM EDTA, 0.1 mM PMSF, 15 mM beta-mercaptoethanol; 10-120 ug protein in 100 uL loaded; apparent mass from calibration, estimated number of subunits
[2] = target: T1, human small heat shock protein HspB6, …; assay: as above; conditions: remark: other sources report otherwise
[3] = target: T2, human small heat shock protein HspB8, …; assay: SEC-SAXS; online SEC-SAXS, SWING beamline; Shodex KW404-4F; 20 mM HEPES, 150 mM NaCl, pH 7.4, 2.5 mM DTT; 5 mg/mL (230 uM) sample applied; mass from the volume of correlation; conditions: remark: other sources report otherwise
[4] = target: T2, human small heat shock protein HspB8, …; assay: SEC; Superdex 200 HR 10/30; 20 mM Tris/acetate pH 7.6, 150 mM NaCl, 0.1 mM EDTA, 0.1 mM PMSF, 15 mM beta-mercaptoethanol; 10-120 ug protein in 100 uL loaded; apparent mass from calibration, estimated number of subunits; conditions: remark: other sources report otherwise
[5] = target: the molecule itself; assay: as above; remark: listed apart in the source

Binder | stoichiometry N [1] [monomers] | further results
B1 | ~30 | 
B2 |  | stoichiometry N [2]: 3 monomers
B3 | ~3 | 
B4 |  | stoichiometry N [3]: 2 monomers; stoichiometry N [4]: 2 monomers
B5 | ~3 | stoichiometry N [5]: 4 monomers
B6 | ~27 | 
B7 | ~23 | 
